Source: the Immune Epitope Database (IEDB)

Tests used:
HLA-A*02:06 = test: IEDB peptide-MHC binding, purified MHC/competitive/radioactivity; filed as Kd, often an IC50 or EC50 that approximates it; ≥ and ≤ were set here for values at or beyond the usual limits of such assays
HLA-A*02:02 = test: as above
HLA-A*02:03 = test: as above
HLA-A*24:02 = test: as above
HLA-A*26:01 = test: as above
HLA-A*03:01 = test: IEDB peptide-MHC binding, purified MHC/direct/fluorescence; filed as Kd, often an IC50 or EC50 that approximates it; ≥ and ≤ were set here for values at or beyond the usual limits of such assays; details: source organism: Corynebacterium jeikeium
[1] = source organism: Vaccinia virus WR
[2] = source organism: Mammarenavirus juninense
[3] = source organism: Dengue virus 2 Jamaica/1409/1983
[4] = source organism: Dengue virus 1 Brazil/97-11/1997
[5] = source organism: Dengue virus 4 Philippines/H241/1956
[6] = source organism: SARS coronavirus Tor2
[7] = source organism: Dengue virus 3 Martinique/1243/1999
[8] = source organism: Mammarenavirus brazilense
[9] = source organism: Mammarenavirus whitewaterense
[10] = source organism: Lassa virus Josiah
[11] = source organism: Variola major virus

| Sequence | Kd (HLA-A*02:06; [1]) [nM] | Kd (HLA-A*02:02; [1]) [nM] | Kd (HLA-A*02:03; [1]) [nM] | other results |
| --- | --- | --- | --- | --- |
| AADLTQIFEV | 10.9 | 1240 | 404 | – |
| AIKQYGDIDL | ≥ 69800 | ≥ 23400 | ≥ 46400 | – |
| ALEPRKEIDV | ≥ 63300 | 8370 | 11200 | – |
| ALINLVQYRI | 417 | 8.32 | 81.6 | – |
| ALNIALVAV | – | – | – | Kd (HLA-A*02:06; [2]): 370 nM; Kd (HLA-A*02:02; [2]): 15.3 nM; Kd (HLA-A*02:03; [2]): 4.46 nM |
| ALVSDCASTI | 240 | 94.2 | 52.1 | – |
| AMHTALTGA | – | – | – | Kd (HLA-A*02:03; [3]): 15.1 nM |
| AVLDDGIYRI | – | – | – | Kd (HLA-A*02:06; [4]): 10.5 nM |
| AYSLTLQGL | – | – | – | Kd (HLA-A*24:02; source organism: Homo sapiens): 45 nM |
| CTIVDSMII | 4580 | 13900 | 1790 | – |
| DTIETLMLL | – | – | – | Kd (HLA-A*26:01; [4]): 141 nM |
| DTITYKCPL | – | – | – | Kd (HLA-A*26:01; [3]): 3380 nM |
| DTVTYECPL | – | – | – | Kd (HLA-A*26:01; [5]): 6130 nM |
| DVEKRILNTI | 10800 | ≥ 21000 | 12600 | – |
| EFFLIVLLI | – | – | – | Kd (HLA-A*24:02; [3]): 3050 nM |
| ELIDGISLGL | – | – | – | Kd (HLA-A*26:01; source organism: Dengue virus 4 Dominica/814669/1981): 500 nM |
| ELPVKTDIV | 11500 | ≥ 23000 | 8060 | – |
| ETLFGSYIT | 15300 | 2490 | 2440 | – |
| EVNDTHYTV | 4780 | 133 | 115 | – |
| FICNLLLLFV | – | – | – | Kd (HLA-A*02:06; [6]): 3.96 nM; Kd (HLA-A*02:02; [6]): 2.47 nM; Kd (HLA-A*02:03; [6]): 14.6 nM |

| Sequence | Kd (HLA-A*02:06; [1]) [nM] | Kd (HLA-A*02:02; [1]) [nM] | Kd (HLA-A*02:03; [1]) [nM] | other results |
| --- | --- | --- | --- | --- |
| FIMRNFLRSI | 0.447 | 27.7 | 0.118 | – |
| FLAFVVFLL | – | – | – | Kd (HLA-A*02:06; [6]): 2.57 nM; Kd (HLA-A*02:02; [6]): 0.411 nM; Kd (HLA-A*02:03; [6]): 87.9 nM |
| FLLVTLAIL | – | – | – | Kd (HLA-A*02:06; [6]): 0.476 nM; Kd (HLA-A*02:02; [6]): 0.645 nM; Kd (HLA-A*02:03; [6]): 0.97 nM |
| FMSHVKSVT | 4320 | 508 | 181 | – |
| FMWAHPGKK | – | – | – | Kd (HLA-A*03:01): 39 nM |
| FVFDRPLPV | – | – | – | Kd (HLA-A*02:06; source organism: Homo sapiens): 2.38 nM |
| GAFMYTKHSM | 3140 | 544 | 458 | – |
| GALYLGHSA | 792 | 7500 | 1900 | – |
| GLFGKGGIV | – | – | – | Kd (HLA-A*02:03; [3]): 11 nM |
| GLTADARLL | – | – | – | Kd (HLA-A*02:03; source organism: Homo sapiens): 362 nM |
| GMMQNDYGGM | 12000 | 103 | 589 | – |
| GMSIVCIVAA | 1220 | 161 | 231 | – |
| GVVTTSGTYV | – | – | – | Kd (HLA-A*02:06; [4]): 665 nM |
| HTLIMIGSNA | – | – | – | Kd (HLA-A*26:01; [7]): ≥ 22700 nM |
| IISYIILFIL | 3930 | 66.2 | 489 | – |
| ILDNAAKYV | 1810 | 126 | 261 | – |
| ISYKDREWCF | – | – | – | Kd (HLA-A*24:02; [5]): 1020 nM |
| ITVDDDGTM | – | – | – | Kd (HLA-A*26:01; [7]): 13900 nM |
| KADAVVADL | 2210 | 5140 | 12400 | – |
| KLPTLFGRGV | 52.6 | 190 | 32.6 | – |

| Sequence | Kd (HLA-A*02:06; [1]) [nM] | Kd (HLA-A*02:02; [1]) [nM] | Kd (HLA-A*02:03; [1]) [nM] | other results |
| --- | --- | --- | --- | --- |
| KNATWCLEV | – | – | – | Kd (HLA-A*02:06; [8]): 2310 nM; Kd (HLA-A*02:02; [8]): 1610 nM; Kd (HLA-A*02:03; [8]): 7010 nM |
| KTEHCDDFMT | 11600 | 7820 | ≥ 37700 | – |
| LDFAKVASV | – | – | – | Kd (HLA-A*02:06; [9]): 10600 nM; Kd (HLA-A*02:02; [9]): 61.2 nM; Kd (HLA-A*02:03; [9]): 452 nM |
| LINLVQYRI | 5340 | 311 | 583 | – |
| LLAIGCYSQV | – | – | – | Kd (HLA-A*02:03; [3]): 8.28 nM |
| LLGLILFVL | 8140 | 266 | 1860 | – |
| LMANLAPHLL | – | – | – | Kd (HLA-A*02:06; [6]): 115 nM; Kd (HLA-A*02:02; [6]): 0.228 nM; Kd (HLA-A*02:03; [6]): 1.46 nM |
| LMSFTILCLV | – | – | – | Kd (HLA-A*02:06; [6]): 39.6 nM; Kd (HLA-A*02:02; [6]): 0.338 nM; Kd (HLA-A*02:03; [6]): 90.6 nM |
| LNISGYNFSL | – | – | – | Kd (HLA-A*02:06; [10]): 420 nM; Kd (HLA-A*02:02; [10]): 15.5 nM; Kd (HLA-A*02:03; [10]): 4550 nM |
| LTFIKTTLSL | – | – | – | Kd (HLA-A*26:01; [4]): 11400 nM |
| LVIGFLFLA | – | – | – | Kd (HLA-A*02:06; [6]): ≤ 0.1 nM; Kd (HLA-A*02:02; [6]): 7.38 nM; Kd (HLA-A*02:03; [6]): 19.6 nM |
| LYAVATTFVT | – | – | – | Kd (HLA-A*24:02; [3]): 550 nM |
| NLDDVYSYI | – | – | – | Kd (HLA-A*02:06; [11]): 91.8 nM; Kd (HLA-A*02:02; [11]): 0.722 nM; Kd (HLA-A*02:03; [11]): 96 nM |
| NLYISDYKML | ≥ 36000 | 1250 | 1830 | – |
| NTNQGNILM | 5940 | 1700 | 1150 | – |
| NTYKRSGIM | – | – | – | Kd (HLA-A*26:01; [4]): 6550 nM |
| PIPYSRVNHA | 1450 | 11700 | 15300 | – |
| PLNEGVMAV | – | – | – | Kd (HLA-A*02:03; [7]): 21.5 nM |
| PTRTWKVLSI | ≥ 69800 | ≥ 41900 | 15100 | – |
